Four molecules from US20220017627A1 can be followed below.

In assay [1] the target is human IL-7Rα expressed on non-T cells (CD3- cells, monocytes) (human) (UniProt P16871). As to the kind of experiment: cell-based or functional assay.
Assay [2] deals with T1, hIL-7R (Example 11) (human) (UniProt P16871).
T1 sequence: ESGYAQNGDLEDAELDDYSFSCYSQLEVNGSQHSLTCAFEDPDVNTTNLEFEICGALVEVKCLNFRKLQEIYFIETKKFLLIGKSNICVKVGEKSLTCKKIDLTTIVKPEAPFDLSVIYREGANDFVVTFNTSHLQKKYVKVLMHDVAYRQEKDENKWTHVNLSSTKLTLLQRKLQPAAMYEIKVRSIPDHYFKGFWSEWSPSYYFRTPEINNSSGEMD
As to the kind of experiment: SPR (Biacore), ratio KD of parent 18B1 to KD of variant. (In general: Surface plasmon resonance follows binding to a sensor surface in real time, without labels.)

The target in assay [3] is T1, hIL-7R (Example 11) (human). Briefly: NGS enrichment ratio of the mutation in the scFv library selected at 0.2 nM hIL-7R.
The target is the same in assay [4]. As to the kind of experiment: SPR at 37C.
For assay [5] the target is unchanged. Briefly: NGS enrichment ratio, parental scFv, reference of the normalisation [cont'd].

B1: Anti-IL-7R Antibody (Antibody A) (antibody, human IgG1, kappa, V domains shown)
VH: EVQLVESGGGLVQPGRSLRLSCAASGFTFDDHAMHWVRQAPGKGLEWVSGISWNSRGIGYADSVKGRFTIFRDNAKNSLYLQMNSLRAEDTALYYCAKDEYSRGYYVLDVWGQGTTVTVSS
VL: AIQLTQSPSSLSASVGDRVTITCRASQGISSALAWYQQKPGKAPKLLIYDASSLESGVPSRFSGSGSGTDFTLTISSLQPEDFATYYCQQFNSYPLWITFGQGTRLEIKR
As to B1, the MCP1 Production IC50, purified monocytes, TSLP in assay [1] was determined as 24 nM.

B2: 18B1 LC Y94A (antibody, human IgG1, kappa, V domains shown)
VH: EVQLVESGGGLVQPGRSLRLSCAASGFTFDDHAMHWVRQAPGKGLEWVSGISWNSRGIGYADSVKGRFTIFRDNAKNSLYLQMNSLRAEDTALYYCAKDEYSRGYYVLDVWGQGTTVTVSS
VL: AIQLTQSPSSLSASVGDRVTITCRASQGISSALAWYQQKPGKAPKLLIYDASSLESGVPSRFSGSGSGTDFTLTISSLQPEDFATYYCQQFNSAPLWITFGQGTRLEIKR
Regarding B2, the KD Relative to 18B1 in assay [2] stood at 0.01. The 0.2 nM NGS in assay [3] worked out at 0.01.

B3: 18B1 scFv (scFv, V domains shown, not shown: small tags and cut ends)
VH: EVQLVESGGGLVQPGRSLRLSCAASGFTFDDHAMHWVRQAPGKGLEWVSGISWNSRGIGYADSVKGRFTIFRDNAKNSLYLQMNSLRAEDTALYYCAKDEYSRGYYVLDVWGQGTTVTVSS
VL: AIQLTQSPSSLSASVGDRVTITCRASQGISSALAWYQQKPGKAPKLLIYDASSLESGVPSRFSGSGSGTDFTLTISSLQPEDFATYYCQQFNSYPLWITFGQGTRLEIK
modifications: linker; domain order unknown
A word on the Kd: it is the constant that tells how readily two partners part at equilibrium. As a reminder, the koff is the first-order rate constant of dissociation. A high value points to fast dissociation. The kon is a measure of how fast the partners come together. Lower therefore signals slow association. In assay [4], B3 gave a Kd of 1.3 nM, a koff of 0.000403 s⁻¹ and an on-rate constant (kon) of 311000 M⁻¹ s⁻¹. Besides, the 0.2 nM NGS in assay [5] was 1.

B4: 18B1 LC L95aA (antibody, V domains shown)
VH: EVQLVESGGGLVQPGRSLRLSCAASGFTFDDHAMHWVRQAPGKGLEWVSGISWNSRGIGYADSVKGRFTIFRDNAKNSLYLQMNSLRAEDTALYYCAKDEYSRGYYVLDVWGQGTTVTVSS
VL: AIQLTQSPSSLSASVGDRVTITCRASQGISSALAWYQQKPGKAPKLLIYDASSLESGVPSRFSGSGSGTDFTLTISSLQPEDFATYYCQQFNSYPAWITFGQGTRLEIKR
With B4, in assay [2], the KD Relative to 18B1 amounted to 0.01. For the same molecule, in assay [3], the 0.2 nM NGS was found to be 0.01.
